Results as given in US20230127087, “GLYPICAN-3-SPECIFIC MODIFIED APTAMER AND USE THEREOF” (APTAMER SCIENCES INC., published 2023).

Assays:
Glypican-3 (GPC3) [1] = target: T1, Glypican-3 (GPC3) (UniProt P51654 P51654:25-554); assay: filter; gemcitabine in loop; values only in figure
Glypican-3 (GPC3) [2] = target: T1, Glypican-3 (GPC3); assay: filter; gemcitabine at 3' end; values only in figure
Glypican-3 (GPC3) [3] = target: T1, Glypican-3 (GPC3); assay: Kd similar to 12-10; GPC3-Cy5; value only in figure; conditions: label: 5' Cy5 (cell assays)

T1 sequence (P51654 25-554, one chain of several): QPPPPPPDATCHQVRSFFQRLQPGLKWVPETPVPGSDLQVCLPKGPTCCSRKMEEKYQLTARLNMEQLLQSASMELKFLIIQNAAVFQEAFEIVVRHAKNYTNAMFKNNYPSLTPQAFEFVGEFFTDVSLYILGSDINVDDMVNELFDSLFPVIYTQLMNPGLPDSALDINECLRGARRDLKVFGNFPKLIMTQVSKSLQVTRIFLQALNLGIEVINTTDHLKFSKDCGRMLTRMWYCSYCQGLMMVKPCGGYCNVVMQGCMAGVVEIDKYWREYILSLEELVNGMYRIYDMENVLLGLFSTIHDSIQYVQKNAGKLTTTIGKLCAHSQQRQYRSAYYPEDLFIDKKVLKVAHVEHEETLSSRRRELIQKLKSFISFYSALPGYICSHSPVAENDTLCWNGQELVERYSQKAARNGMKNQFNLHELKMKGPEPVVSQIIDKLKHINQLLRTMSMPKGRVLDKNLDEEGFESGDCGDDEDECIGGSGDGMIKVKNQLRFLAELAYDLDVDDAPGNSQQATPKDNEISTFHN

B1: 12-10 G(2)L (ssDNA)
DNA: GGGAAGTGAATGCGTTGAATTATGTCCCTTCAGTCATCAC
modifications: n = BzdU; S = gemcitabine [BzdU (T) at 7,11,15,16,20,21,23,25,29,30,34,37; gemcitabine (C) at 26,27]
B1: binds (Glypican-3 (GPC3) [1]).

B2: 12-10 G(2)3' (ssDNA)
DNA: GGGAAGTGAATGCGTTGAATTATGTCCCTTCAGTCATCACCA
modifications: n = BzdU; S = gemcitabine [BzdU (T) at 7,11,15,16,20,21,23,25,29,30,34,37; gemcitabine (C) at 40,41]
B2: binds (Glypican-3 (GPC3) [2]).

GTGAATGCGTTGAATTATGTCCCTTCAGTCATCAC (ssDNA, n = BzdU; 3' idT) [12-12]: binds (Glypican-3 (GPC3) [3]).
